Experiment [1] addresses epitope … (98-106) of the haemagglutinin of the human influenza virus (human influenza virus). Briefly: rounded affinity in the description; antigen not given.
The target of experiment [2] is Bio-C-HA (acetyl-… (ε-biotinoyl)-amide) (human influenza virus). Briefly: SPR (BIACORE), biotinylated peptide on streptavidin chip, antibody in solution. Background: SPR reads the build-up and loss of mass on a sensor chip optically.
Experiment [3] has as its target Bio-N-HA (biotinoyl-ε-Aca-…-amide) (human influenza virus). Described as above.
The target in experiment [4] is Glutathione-S-transferase modified with the HA epitope (GST-HA) (human influenza virus). Kind of experiment: Western blot of serially diluted GST-HA with antibody-peroxidase conjugate (20 mU/ml); chemiluminescence. For orientation: In western blotting, separated proteins are transferred to a membrane and probed.
Experiment [5] has the same target. Briefly: Western blot of serially diluted GST-HA with antibody-peroxidase conjugate (100 ng/ml); chemiluminescence.
Experiment [6] has the same target. Kind of experiment: Western blot of serially diluted GST-HA; 0.1 µg/ml 3F10 against 1 µg/ml 12CA5; chemiluminescence.
The target in experiment [7] is Green-fluorescent protein modified with the HA epitope (GFP-HA) (human influenza virus) [GFP: P42212]. Kind of experiment: immunoprecipitation of 50 ng GFP-HA with protein G, then Western blot.
For experiment [8], the target named is Glutathione-S-transferase modified with the HA epitope (GST-HA) (human influenza virus). Kind of experiment: Western blot, 4 ng GST-HA per lane, primary antibody titrated; chemiluminescence.

A word on the koff: it is the rate constant with which the complex falls apart. Low readings indicate slow dissociation, high ones fast dissociation. As a reminder, the kon is a measure of how fast the partners come together. Low values mean slow association, high ones fast association. Regarding anti-HA BabCo (antibody), the Ka in experiment [1] is 1e+07 M⁻¹; in experiment [2] it was 9.3e+06 M⁻¹; in experiment [3], 2.3e+07 M⁻¹. Further, the figures for the koff in experiment [2] and in experiment [3] were 0.001 s⁻¹ and 0.0005 s⁻¹, respectively. Moreover, the kon came out at 9500 M⁻¹ s⁻¹ in experiment [2] and 12000 M⁻¹ s⁻¹ in experiment [3].
“peroxidase conjugate of the clone 3F10 (antibody)” came in with an amount still detected in experiment [4] of 40 pg GST-HA.
“peroxidase conjugate of the clone 12CA5 (antibody)” displayed a detection limit in experiment [5] of 1 ng GST-HA.
As for mAB R 3F10 (antibody), in experiment [1], the Ka turned out to be 1e+10 M⁻¹; the fold higher affinity than 12CA5 and BabCo worked out at 30 fold. The same substance yielded a fold lower detectable amount of GST-HA against clone 12CA5 in experiment [6] of 30 fold. In addition, in experiment [7], the fold lower antibody quantity to precipitate the antigen against clone 12CA5 was less than 20 fold. In experiment [8], this substance came in with an antibody concentration at signal saturation of 125 ng/mL and a fold lower antibody concentration for comparable signals against clone 12CA5 of 20 fold. For the same substance, in experiment [2], the Ka came to 1.2e+10 M⁻¹, the koff was determined as 4.8e-05 s⁻¹ and the kon amounted to 590000 M⁻¹ s⁻¹. In addition, in experiment [3], the Ka was found to be 6.8e+09 M⁻¹, the koff is 9.1e-05 s⁻¹ and the kon is 620000 M⁻¹ s⁻¹.
For the substance mAB 12CA5 (antibody), the Ka in experiment [1] came to 1e+08 M⁻¹. The antibody concentration at which the antibody becomes the limiting factor in experiment [8] was less than 2000 ng/mL. For the same substance, in experiment [2], the Ka turned out to be 9.2e+07 M⁻¹, the koff worked out at 0.00026 s⁻¹ and the kon was determined as 23000 M⁻¹ s⁻¹. In experiment [3], this substance came in with a Ka of 2.6e+08 M⁻¹, a koff of 0.00021 s⁻¹ and a kon of 53000 M⁻¹ s⁻¹.

The values above are taken from patent US7255859.
